Columns and labels:
HeLa Kyoto [1] = test: solubility change mitosis vs G1/S (difference of NP-40 vs SDS log2 ratios) (log2 ratio difference); higher = more soluble in mitosis
HeLa Kyoto [2] = test: solubility in G1/S (NP-40 vs SDS abundance) (log2 ratio); higher = more soluble; conditions: cell cycle stage: G1/S
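Throughout, for solubility change mitosis vs G1/S (difference of NP-40 vs SDS log2 ratios): synchronized HeLa Kyoto cells (double thymidine block for G1/S, nocodazole release for mitosis), protein amounts in NP-40 versus SDS lysates quantified by mass spectrometry, three biological replicates.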
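Throughout, for solubility in G1/S (NP-40 vs SDS abundance): HeLa Kyoto cells arrested at G1/S by double thymidine block, proteins quantified by TMT10plex mass spectrometry in mild NP-40 versus SDS extracts, three biological replicates.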

Sequence	solubility change mitosis (log2) (HeLa Kyoto [1])	solubility in G1/S (log2) (HeLa Kyoto [2])
MATVLSRALKLPGKKSPDLGEYDPLTQADSDESEDDLVLNLQKNGGVKNGKSPLGEAPEPDSDAEVAEAAKPHLSEVTTEGYPSEPLGGLEQKAASSLVSYVRTSVFLLTLGISMILVLLCAFLIPCPPRDLHSTWSRHLGSQGGGDLSPLELADVNGDGLRDVLLSFVMSRNGSAVGVSRPAANLVCLSGMNGSTLWSSLLPEEARDITCLELMPGSLAETICLVTGTHKMLSAFNATSGKAIWTLNPNYLSNGTLAAPVVVLPDLDEDGVRDLVVLAIGELQPDLCFLLVSGRTGNPVGRPVKYNIVGVGNLIGPQVYITTNGAVYILFGFGNIQAVALRDIFVQAQNRDSSPPSLQIEEPEWEKRRSINLSELIDVYSDGVELLQMVKAPDSNCSNLLITTRQSLVLLRGQNLTPYWALRLQGLRSQPTPGYFTDDQTLDFLLQIQDGVGMKKMMVVDGDSGSIVWSYRAPCHMKETPATSAVTSDQKSVFLFWAEGLSAASPNSDIILGTEPPSLHHLYLLHPAFPSILLDLANTTGTVTASEVGINDLWKDAFYVTRTTGPSSEGHPAALVVSKLSLRWALMEGQMAQLQESTPKIGRGELRRFLSRIKFVEAPYEI [KIAA1467]	-0.0551	0.0831
MATVQEKAAALNLSALHSPAHRPPGFSVAQKPFGATYVWSSIINTLQTQVEVKKRRHRLKRHNDCFVGSEAVDVIFSHLIQNKYFGDVDIPRAKVVRVCQALMDYKVFEAVPTKVFGKDKKPTFEDSSCSLYRFTTIPNQDSQLGKENKLYSPARYADALFKSSDIRSASLEDLWENLSLKPANSPHVNISATLSPQVINEVWQEETIGRLLQLVDLPLLDSLLKQQEAVPKIPQPKRQSTMVNSSNYLDRGILKAYSDSQEDEWLSAAIDCLEYLPDQMVVEISRSFPEQPDRTDLVKELLFDAIGRYYSSREPLLNHLSDVHNGIAELLVNGKTEIALEATQLLLKLLDFQNREEFRRLLYFMAVAANPSEFKLQKESDNRMVVKRIFSKAIVDNKNLSKGKTDLLVLFLMDHQKDVFKIPGTLHKIVSVKLMAIQNGRDPNRDAGYIYCQRIDQRDYSNNTEKTTKDELLNLLKTLDEDSKLSAKEKKKLLGQFYKCHPDIFIEHFGD [DEPDC7]	-0.0977	0.222
MAVDVAEYHLSVIKSPPGWEVGVYAAGALALLGIAAVSLWKLWTSGSFPSPSPFPNYDYRYLQQKYGESCAEAREKRVPAWNAQRASTRGPPSRKGSLSIEDTFESISELGPLELMGRELDLAPYGTLRKSQSADSLNSISSVSNTFGQDFTLGQVEVSMEYDTASHTLNVAVMQGKDLLEREEASFESCFMRVSLLPDEQIVGISRIQRNAYSIFFDEKFSIPLDPTALEEKSLRFSVFGIDEDERNVSTGVVELKLSVLDLPLQPFSGWLYLQDQNKAADAVGEILLSLSYLPTAERLTVVVVKAKNLIWTNDKTTADPFVKVYLLQDGRKMSKKKTAVKRDDPNPVFNEAMIFSVPAIVLQDLSLRVTVAESSSDGRGDNVGHVIIGPSASGMGTTHWNQMLATLRRPVSMWHAVRRN [SYT12]	-0.135	0.0502
MAVTAQAARRKERVLCLFDVDGTLTPARQKIDPEVAAFLQKLRSRVQIGVVGGSDYCKIAEQLGDGDEVIEKFDYVFAENGTVQYKHGRLLSKQTIQNHLGEELLQDLINFCLSYMALLRLPKKRGTFIEFRNGMLNISPIGRSCTLEERIEFSELDKKEKIREKFVEALKTEFAGKGLRFSRGGMISFDVFPEGWDKRYCLDSLDQDSFDTIHFFGNETSPGGNDFEIFADPRTVGHSVVSPQDTVQRCREIFFPETAHEA [PMM1]	0.102	0.195
